Experimental findings from PMC7615804, “Molecular mechanism of dynein-dynactin complex assembly by LIS1” (Science (New York, N.Y.), 2024) are described below.

First the molecules themselves.
B1: GCN4-WD40-SNAP (other, human)
chain: GSGSVKQLEDKVEELLSKNAHLENEVARLKKLVSGGPLGQKRDPKEWIPRPPEKYALSGHRSPVTRVIFHPVFSVMVSASEDATIKVWDYETGDFERTLKGHTDSVQDISFDHSGKLLASCSADMTIKLWDFQGFECIRTMHGHDHNVSSVAIMPNGDHIVSASRDKTIKMWEVQTGYCVKTFTGHREWVRMVRPNQDGTLIASCSNDQTVRVWVVATKECKAELREHEHVVECISWAPESSYSSISEATGSETKKSGKPGPFLLSGSRDKTIKMWDVSTGMCLMTLVGHDNWVRGVLFHSGGKFILSCADDKTLRVWDYKNKRCMKTLNAHEHFVTSLDFHKTAPYVVTGSVDQTVKVWECR
notes: LIS1, human, residues 81-410; source: Sf9, purified (IgG Sepharose, TEV, SEC); not shown: ZZ, N-terminal, cleaved; SNAPf, C-terminal, kept
B2: LIS1-N (residues 1-90) (domain or fragment, human, UniProt P43034 1-90, looked up)
chain: MVLSQRQRDELNRAIADYLRSNGYEEAYSVFKKEAELDVNEELDKKYAGLLEKKWTSVIRLQKKVMELESKLNEAKEEFTSGGPLGQKRD
notes: LIS1, human, residues 1-90 (LisH domain and coiled coil); source: Sf9, purified (IgG Sepharose, TEV, SEC); not shown: ZZ, N-terminal, cleaved
B3: GST-Psc-DCTN1(residues 350-547)-GFP-6xHis (domain or fragment, human (from the printed UniProt entry), UniProt Q14203-1 350-547, looked up)
chain: GSDGAASSYQLKQLEEQNARLKDALVRMRDLSSSEKQEHVKLQKLMEKKNQELEVVRQQRERLQEELSQAESTIDELKEQVDAALGAEEMVEMLTDRNLNLEEKVRELRETVGDLEAMNEMNDELQENARETELELREQLDMAGARVREAQKRVEAAQETVADYQQTIKKYRQLTAHLQDVNRELTNQQEASVERQQQ
notes: DCTN1/p150glued, UniProt Q14203-1, residues 350-547 (CC1B fragment); also called CC1B; p150-CC1B; source: SoluBL21 E. coli, purified (Ni-NTA, glutathione resin, SEC)
B4: MBP-DIC-N (dynein intermediate chain 1-76) (domain or fragment, human, UniProt Q13409 1-76, looked up)
chain: MSDKSELKAELERKKQRLAQIREEKKRKEEERKKKETDQKKEAVAPVQEESDLEKKRREAEALLQSMGLTPESPIV
notes: dynein intermediate chain, residues 1-76; UniProt Q13409 is printed for DIC in the AlphaFold2 predictions; 2CT vector; the general protocol includes a TEV step, but this construct is named and used as MBP-DIC-N on amylose resin; also called DIC-N construct; source: SoluBL21 E. coli, purified; not shown: MBP, N-terminal, kept
B5: human Arf6 (12-175_Q67L) (domain or fragment, UniProt P62330 12-175, looked up)
chain: KEMRILMLGLDAAGKTTILYKLKLGQSVTTIPTVGFNVETVTYKNVKFNVWDVGGLDKIRPLWRHYYTGTQGLIFVVDCADRDRIDEARQELHRIINDREMRDAIILIFANKQDLPDAMKPHEIQEKLGLTRIRDRNWYVQPSCATSGDGLYEGLTWLTSNYKS
notes: Arf6, human, residues 12-175 with Q67L; pGEX-6P-1 vector: N-terminal GST, Prescission site, C-terminal 6xHis; source: SoluBL21 E. coli, purified (Ni-NTA, glutathione resin, SEC)
B6: JIP3^1-560 (domain or fragment, human, UniProt Q9UPT6-1 1-560, looked up)
chain: MMEIQMDEGGGVVVYQDDYCSGSVMSERVSGLAGSIYREFERLIHCYDEEVVKELMPLVVNVLENLDSVLSENQEHEVELELLREDNEQLLTQYEREKALRRQAEEKFIEFEDALEQEKKELQIQVEHYEFQTRQLELKAKNYADQISRLEERESEMKKEYNALHQRHTEMIQTYVEHIERSKMQQVGGNSQTESSLPGRRKERPTSLNVFPLADGTVRAQIGGKLVPAGDHWHLSDLGQLQSSSSYQCPQDEMSESGQSSAAATPSTTGTKSNTPTSSVPSAAVTPLNESLQPLGDYGVGSKNSKRAREKRDSRNMEVQVTQEMRNVSIGMGSSDEWSDVQDIIDSTPELDMCPETRLDRTGSSPTQGIVNKAFGINTDSLYHELSTAGSEVIGDVDEGADLLGEFSVRDDFFGMGKEVGNLLLENSQLLETKNALNVVKNDLIAKVDQLSGEQEVLRGELEAAKQAKVKLENRIKELEEELKRVKSEAIIARREPKEEAEDVSSYLCTESDKIPMAQRRRFTRVEMARVLMERNQYKERLMELQEAVRWTEMIRASRE
notes: JIP3, human, UniProt Q9UPT6-1, residues 1-560, codon optimised for Sf9; The bacterial 2CT version would carry a C-terminal Strep-tag II; source: Sf9, purified (IgG Sepharose, TEV, SEC); not shown: His6, N-terminal, cleaved; ZZ, N-terminal, cleaved
B7: LIS1^mut (natural protein, human, UniProt P43034 1-410, looked up)
chain: MVASQEARDELNRAIADYLRSNGYEEAYSVFKKEAELDVNEELDKEYAGLLEEEWAAVAELAEEVMELRSKLNEAKEEFTSGGPLGQKRDPKEWIPRPPEKYALSGHRSPVTRVIFHPVFSVMVSASEDATIKVWDYETGDFERTLKGHTDSVQDISFDHSGKLLASCSADMTIKLWDFQGFECIRTMHGHDHNVSSVAIMPNGDHIVSASRDKTIKMWEVQTGYCVKTFTGHREWVRMVRPNQDGTLIASCSNDQTVRVWVVATKECKAELREHEHVVECISWAPESSYSSISEATGSETKKSGKPGPFLLSGSRDKTIKMWDVSTGMCLMTLVGHDNWVRGVLFHSGGKFILSCADDKTLRVWDYKNKRCMKTLNAHEHFVTSLDFHKTAPYVVTGSVDQTVKVWECR
notes: The last substitution is printed as E6 9R and read as E69R; source: Sf9, purified (IgG Sepharose, TEV, SEC); not shown: ZZ, N-terminal, cleaved

Changes are numbered by the printed parent chain. Names and notes keep the numbering of the source.

Series [1] concerns the molecule itself. Description: SEC-MALS; 70 μL at 1 mg/mL, GF150 buffer, Superdex 200 5/150. Background: In gel filtration, larger molecules generally elute earlier.
In series [2] the target is B3. Nature of the series: pull-down; GST pull-down on glutathione resin with GST-CC1A/B or CC1B as bait; LIS1, LIS1-N or MBP-DIC-N as prey; GST-PD buffer (50 mM HEPES pH 7.5, 100 mM KCl, 1 mM MgCl2, 1 mM DTT), room temperature; Coomassie-stained SDS-PAGE. The settings on record: both partners purified.
In another series the target is T1, LIS1 (full length human) (human, UniProt P43034 1-410).
T1 construct: LIS1, human, full length, UniProt P43034 (printed for the AlphaFold2 prediction); A version with an additional C-terminal SNAPf tag also exists; also called wild-type LIS1; source: Sf9, purified (IgG Sepharose, TEV, SEC); not shown: ZZ, N-terminal, cleaved
T1 sequence (looked up): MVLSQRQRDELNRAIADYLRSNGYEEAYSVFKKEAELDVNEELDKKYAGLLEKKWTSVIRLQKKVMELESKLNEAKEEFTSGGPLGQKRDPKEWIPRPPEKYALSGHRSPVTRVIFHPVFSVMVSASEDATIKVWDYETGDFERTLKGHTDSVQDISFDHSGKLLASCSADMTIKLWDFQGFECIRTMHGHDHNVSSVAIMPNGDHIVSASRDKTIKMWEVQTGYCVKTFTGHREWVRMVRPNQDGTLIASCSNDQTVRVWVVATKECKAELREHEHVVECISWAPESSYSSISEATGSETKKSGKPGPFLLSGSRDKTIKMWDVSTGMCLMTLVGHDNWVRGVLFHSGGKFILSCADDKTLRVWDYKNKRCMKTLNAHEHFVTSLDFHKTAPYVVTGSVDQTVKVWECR
Described as above. To be noted: both partners purified.

Series [3] deals with T2, GST-Psc-DCTN1(residues 214-547)-GFP-6xHis (human (from the printed UniProt entry), UniProt Q14203-1 214-547).
T2 construct: DCTN1/p150glued, UniProt Q14203-1, residues 214-547 (CC1 fragment: CC1A and CC1B); also called GST-CC1A/B; CC1A/B; source: SoluBL21 E. coli, purified (Ni-NTA, glutathione resin, SEC); not shown: GST, N-terminal, kept
The description is as above. The settings on record: both partners purified.

Series [4] deals with T3, mouse JIP3^185-505 (JIP3 residues 186-505) (mouse, UniProt Q9ESN9-5 186-505).
T3 construct: 2CT vector; also called JIP3 fragment containing the Spindly motif and LZII; JIP3 186-505; source: SoluBL21 E. coli, purified (Ni-NTA, TEV, Strep-Tactin, SEC); not shown: His6, N-terminal, cleaved; MBP, N-terminal, cleaved
T3 sequence (looked up): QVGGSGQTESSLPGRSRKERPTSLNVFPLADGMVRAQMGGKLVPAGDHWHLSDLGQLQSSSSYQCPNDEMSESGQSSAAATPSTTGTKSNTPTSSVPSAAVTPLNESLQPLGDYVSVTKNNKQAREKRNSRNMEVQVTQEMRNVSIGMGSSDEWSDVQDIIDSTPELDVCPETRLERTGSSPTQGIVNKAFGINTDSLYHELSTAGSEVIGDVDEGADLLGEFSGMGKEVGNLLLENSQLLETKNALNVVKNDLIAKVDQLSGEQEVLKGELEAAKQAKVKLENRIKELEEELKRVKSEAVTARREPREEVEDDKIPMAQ
Nature of the series: pull-down; pull-downs with mouse JIP3 186-505 constructs, Arf6 and the recombinant pointed end complex (Fig. S3E); purified recombinant proteins; which protein was held on the resin is not told in the text shown. To be noted: both partners purified.

Series [5] addresses T4, mouse JIP3 186-505_L383A/E386A (mouse, UniProt Q9ESN9-5 186-505, L383A | E386A).
T4 construct: JIP3, mouse cDNA, isoform 3a, UniProt Q9ESN9-5, residues 186-505 with L383A and E386A; also called Spindly motif mutant (L383A/E386A); source: SoluBL21 E. coli, purified (Ni-NTA, TEV, Strep-Tactin, SEC); not shown: His6, N-terminal, cleaved; MBP, N-terminal, cleaved
T4 sequence (looked up): T3 sequence (looked up) with L198A, E201A
The series is described as above. The settings on record: both partners purified.

The target in series [6] is T5, dynactin pointed end complex (ZZ-TEV-Arp11, p62, p25, p27) (human, UniProt Q9NZ32 1-417; Q9UJW0-1 1-460; Q9BTE1 1-182; O00399 1-190).
T5 construct: Arp11, human, subunit of the dynactin pointed end complex; p62, human, isoform A, UniProt Q9UJW0-1; p25, human, subunit of the dynactin pointed end complex; p27, human, subunit of the dynactin pointed end complex; source: pAceBac1 vector; copies: + + +
T5 sequence (Q9NZ32 whole entry, chain 1 of 4, canonical isoform): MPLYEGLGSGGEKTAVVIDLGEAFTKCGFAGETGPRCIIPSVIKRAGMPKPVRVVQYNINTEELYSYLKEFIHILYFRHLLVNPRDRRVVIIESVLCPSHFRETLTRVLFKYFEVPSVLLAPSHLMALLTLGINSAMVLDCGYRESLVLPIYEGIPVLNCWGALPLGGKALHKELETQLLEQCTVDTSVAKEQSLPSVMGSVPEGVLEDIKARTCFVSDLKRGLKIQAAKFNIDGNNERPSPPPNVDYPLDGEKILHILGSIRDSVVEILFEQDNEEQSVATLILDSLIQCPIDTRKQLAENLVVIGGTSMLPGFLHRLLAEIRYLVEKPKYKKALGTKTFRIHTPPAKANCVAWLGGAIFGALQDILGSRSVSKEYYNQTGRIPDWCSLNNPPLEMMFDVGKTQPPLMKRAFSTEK
T5 sequence (Q9UJW0 whole entry, chain 2 of 4, canonical isoform): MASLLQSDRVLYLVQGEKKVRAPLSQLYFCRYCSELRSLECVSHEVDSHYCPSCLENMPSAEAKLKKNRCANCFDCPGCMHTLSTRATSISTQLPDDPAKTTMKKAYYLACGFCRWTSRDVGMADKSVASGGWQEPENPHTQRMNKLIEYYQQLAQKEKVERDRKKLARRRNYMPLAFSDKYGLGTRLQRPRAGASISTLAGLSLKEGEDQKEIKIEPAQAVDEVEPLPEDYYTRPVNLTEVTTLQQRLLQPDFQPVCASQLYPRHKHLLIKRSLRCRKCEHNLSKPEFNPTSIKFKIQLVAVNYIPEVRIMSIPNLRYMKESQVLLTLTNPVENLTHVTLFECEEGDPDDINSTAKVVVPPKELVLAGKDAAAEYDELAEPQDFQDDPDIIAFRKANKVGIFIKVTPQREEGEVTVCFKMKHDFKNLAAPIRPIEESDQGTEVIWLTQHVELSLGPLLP
T5 sequence (Q9BTE1 whole entry, chain 3 of 4, canonical isoform): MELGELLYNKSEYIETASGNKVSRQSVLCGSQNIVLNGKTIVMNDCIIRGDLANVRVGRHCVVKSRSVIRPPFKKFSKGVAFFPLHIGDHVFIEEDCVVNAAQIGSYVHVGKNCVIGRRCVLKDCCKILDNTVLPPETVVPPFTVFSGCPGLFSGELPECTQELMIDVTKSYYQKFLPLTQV
T5 sequence (O00399 whole entry, chain 4 of 4, canonical isoform): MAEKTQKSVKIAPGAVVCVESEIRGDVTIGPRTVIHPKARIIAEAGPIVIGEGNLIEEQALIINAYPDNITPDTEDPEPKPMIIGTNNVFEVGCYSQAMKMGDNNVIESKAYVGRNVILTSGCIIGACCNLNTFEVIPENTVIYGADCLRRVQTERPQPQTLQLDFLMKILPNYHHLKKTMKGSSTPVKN
Nature of the series: SEC; pointed end complex and JIP3^1-560 (or its Spindly mutant) mixed 1:1 at 10 μM final in GF150 buffer, 30 min at 4°C, Superose 6 Increase 3.2/300. The settings on record: both partners purified.

Regarding B1, in series [1], the “stoichiometry N” value was 2.

In the case of B2, the binding result in series [2] is on record as “binds”.

Turning to B3, the binding result with LIS1 (full length human) is on record as “binds”.

Consider B4, for which, in series [3], the binding result is “binds”.

With B5, the binding result in series [4] and in series [5] was “binds” each time.

In the case of B6, the binding result in series [6] is on record as “binds”.

Take B7: in series [1], the “stoichiometry N” value was 2.

What is called stoichiometry N is a count of units in the complex or per binding partner.
